Experimental data reported in publication PMC7083938, “NELL2-Robo3 complex structure reveals mechanisms of receptor activation for axon guidance” (Nature Communications, 2020).

Columns and labels:
[1] = target: T1, hRobo3 FN1-3 displayed on S2 cells (human, UniProt Q96MS0 549-870); assay: flow cytometry on cells; biotinylated ligand at various concentrations, 30 min at 4 °C in PBS + 0.1% BSA, on Drosophila S2 cells displaying the partner (C-terminal FLAG, rat Neurexin-1 transmembrane helix); Cy5-streptavidin; gated on anti-FLAG positive cells; MFI fit to a single-site model; apparent KD; details: one partner purified
T1 construct: human Robo3, FN domains 1-3, P549-L870; also called Robo3FN1-3 WT (Actin 5C, C-terminal FLAG); source: Drosophila S2 cells, transiently transfected, on the cell surface; not shown: FLAG, C-terminal, kept; transmembrane helix of rat Neurexin-1, C-terminal, kept
T1 sequence (looked up): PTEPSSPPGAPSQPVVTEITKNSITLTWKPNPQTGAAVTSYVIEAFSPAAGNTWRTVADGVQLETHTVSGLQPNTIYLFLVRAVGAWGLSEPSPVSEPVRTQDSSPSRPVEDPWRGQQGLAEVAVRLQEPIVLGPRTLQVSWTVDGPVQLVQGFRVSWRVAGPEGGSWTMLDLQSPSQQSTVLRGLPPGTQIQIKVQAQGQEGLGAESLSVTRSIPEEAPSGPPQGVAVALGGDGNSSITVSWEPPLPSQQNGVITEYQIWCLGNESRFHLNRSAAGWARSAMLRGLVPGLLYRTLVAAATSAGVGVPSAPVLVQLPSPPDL

[2] = target: the molecule itself; assay: SEC-SAXS; Superose 6 Increase 10/300 in HBS at APS BioCAT beamline 18; molecular weight from the scattering
[3] = target: the molecule itself; assay: SEC-MALS; Wyatt HELEOS II coupled to an AKTA FPLC, Superose Increase 6 10/300, HBS; Zimm model
[4] = target: T2, hRobo3 FN1-3, biotinylated (wild type) (human, UniProt Q96MS0 549-870, biotin on the Avi-tag (BirA)); assay: SPR; as a6 but with additional 10 mM EDTA in all buffers; details: both partners purified
T2 construct: human Robo3, FN domains 1-3, P549-L870; also called WT hRobo3 FN; Robo3FN1-3 WT; source: High Five cells (baculovirus), purified (Ni-NTA, SEC), biotinylated with BirA
T2 sequence (looked up): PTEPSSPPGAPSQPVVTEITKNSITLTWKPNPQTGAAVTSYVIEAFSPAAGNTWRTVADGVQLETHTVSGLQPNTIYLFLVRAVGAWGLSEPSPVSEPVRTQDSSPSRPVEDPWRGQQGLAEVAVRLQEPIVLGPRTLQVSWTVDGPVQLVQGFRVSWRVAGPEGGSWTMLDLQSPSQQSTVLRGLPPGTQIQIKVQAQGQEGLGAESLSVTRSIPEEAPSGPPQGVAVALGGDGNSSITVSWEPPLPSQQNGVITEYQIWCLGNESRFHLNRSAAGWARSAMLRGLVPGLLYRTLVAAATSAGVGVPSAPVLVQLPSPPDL

[5] = target: T2, hRobo3 FN1-3, biotinylated (wild type); assay: SPR; biotinylated hRobo3 FN1-3 on an SA chip, Biacore 3000; hNELL1 EGF1-3 or hNELL2 EGF1-3 as analyte; equilibrium isotherms; details: both partners purified
mRobo3 FN1-3 = target: T3, mRobo3 FN1-3 (mouse, biotin on the Avi-tag (BirA) for SPR); assay: SPR; biotinylated mRobo3 FN1-3 on a Biacore SA chip; mNELL2 EGF1-6 WT and mutants as analytes over the same channel; 20 s 10 mM EDTA pH 8, 150 mM NaCl between runs; 25 °C, 10 mM HEPES pH 7.2, 150 mM NaCl, 0.05% Tween-20, 0.1% BSA; equilibrium, 1:1 Langmuir; details: both partners purified
T3 construct: also called Robo3FN1-3 (Polyhedrin, mouse); source: High Five cells (baculovirus), purified (Ni-NTA, SEC); biotinylated with BirA for SPR; not shown: His6, C-terminal, kept

[6] = target: the molecule itself; assay: AUC; sedimentation velocity, concentration series (mRobo3 0.6-20 µM at 200,000 g; mRobo1 0.9-9.8 µM at 140,000 g), 20 °C, c(s) analysis

B1: hNELL2 EGF1-6 V509A, biotinylated (domain or fragment)
chain: not shown
modifications: biotin on the Avi-tag (BirA)
notes: human NELL2, EGF domains 1-6, G397-T637; source: High Five cells (baculovirus), purified, biotinylated with BirA (general methods)
B1 was tested. Which Kd [1] did it give?
The Kd was 1500 nM.

B2: hNELL2 (full length) (ligand, human, UniProt Q99435 22-816, looked up)
chain: LGVDPSLQIDVLTELELGESTTGVRQVPGLHNGTKAFLFQDTPRSIKASTATAEQFFQKLRNKHEFTILVTLKQTHLNSGVILSIHHLDHRYLELESSGHRNEVRLHYRSGSHRPHTEVFPYILADDKWHKLSLAISASHLILHIDCNKIYERVVEKPSTDLPLGTTFWLGQRNNAHGYFKGIMQDVQLLVMPQGFIAQCPDLNRTCPTCNDFHGLVQKIMELQDILAKTSAKLSRAEQRMNRLDQCYCERTCTMKGTTYREFESWIDGCKNCTCLNGTIQCETLICPNPDCPLKSALAYVDGKCCKECKSICQFQGRTYFEGERNTVYSSSGVCVLYECKDQTMKLVESSGCPALDCPESHQITLSHSCCKVCKGYDFCSERHNCMENSICRNLNDRAVCSCRDGFRALREDNAYCEDIDECAEGRHYCRENTMCVNTPGSFMCICKTGYIRIDDYSCTEHDECITNQHNCDENALCFNTVGGHNCVCKPGYTGNGTTCKAFCKDGCRNGGACIAANVCACPQGFTGPSCETDIDECSDGFVQCDSRANCINLPGWYHCECRDGYHDNGMFSPSGESCEDIDECGTGRHSCANDTICFNLDGGYDCRCPHGKNCTGDCIHDGKVKHNGQIWVLENDRCSVCSCQNGFVMCRRMVCDCENPTVDLFCCPECDPRLSSQCLHQNGETLYNSGDTWVQNCQQCRCLQGEVDCWPLPCPDVECEFSILPENECCPRCVTDPCQADTIRNDITKTCLDEMNVVRFTGSSWIKHGTECTLCQCKNGHICCSVDPQCLQEL
notes: human NELL2, L22-L816; trimer by SAXS; also called NELL2FL (Polyhedrin, human); source: High Five cells (baculovirus), purified (Ni-NTA, SEC)
With B2 as the binder, how does the “stoichiometry N” value [2] read?
Its value is 3.

B3: full-length human NELL2 (ligand, UniProt Q99435 22-816, looked up)
chain: LGVDPSLQIDVLTELELGESTTGVRQVPGLHNGTKAFLFQDTPRSIKASTATAEQFFQKLRNKHEFTILVTLKQTHLNSGVILSIHHLDHRYLELESSGHRNEVRLHYRSGSHRPHTEVFPYILADDKWHKLSLAISASHLILHIDCNKIYERVVEKPSTDLPLGTTFWLGQRNNAHGYFKGIMQDVQLLVMPQGFIAQCPDLNRTCPTCNDFHGLVQKIMELQDILAKTSAKLSRAEQRMNRLDQCYCERTCTMKGTTYREFESWIDGCKNCTCLNGTIQCETLICPNPDCPLKSALAYVDGKCCKECKSICQFQGRTYFEGERNTVYSSSGVCVLYECKDQTMKLVESSGCPALDCPESHQITLSHSCCKVCKGYDFCSERHNCMENSICRNLNDRAVCSCRDGFRALREDNAYCEDIDECAEGRHYCRENTMCVNTPGSFMCICKTGYIRIDDYSCTEHDECITNQHNCDENALCFNTVGGHNCVCKPGYTGNGTTCKAFCKDGCRNGGACIAANVCACPQGFTGPSCETDIDECSDGFVQCDSRANCINLPGWYHCECRDGYHDNGMFSPSGESCEDIDECGTGRHSCANDTICFNLDGGYDCRCPHGKNCTGDCIHDGKVKHNGQIWVLENDRCSVCSCQNGFVMCRRMVCDCENPTVDLFCCPECDPRLSSQCLHQNGETLYNSGDTWVQNCQQCRCLQGEVDCWPLPCPDVECEFSILPENECCPRCVTDPCQADTIRNDITKTCLDEMNVVRFTGSSWIKHGTECTLCQCKNGHICCSVDPQCLQEL
notes: NELL2, human; called full-length; the methods say that mature domains were cloned into pAcGP67A; Trimer by MALS and SAXS; also called hNELL2; full-length hNELL2; source: High Five cells (baculovirus), secreted, purified (Ni-NTA, SEC)
With B3 as the binder, how does the “stoichiometry N” value [3] read?
Its value is 3.

B4: hNELL2 EGF1-3 (domain or fragment, human, UniProt Q99435 397-523, looked up)
chain: GYDFCSERHNCMENSICRNLNDRAVCSCRDGFRALREDNAYCEDIDECAEGRHYCRENTMCVNTPGSFMCICKTGYIRIDDYSCTEHDECITNQHNCDENALCFNTVGGHNCVCKPGYTGNGTTCKA
notes: human NELL2, EGF domains 1-3, G397-A523; also called NELL2EGF1-3 (Polyhedrin, human); source: High Five cells (baculovirus), purified (Ni-NTA, SEC)
What does the source list for B4?
Kd [4]: 790 nM; Kd [5]: 250 nM

B5: mNELL2 EGF1-6 L498A/F500A (domain or fragment)
chain: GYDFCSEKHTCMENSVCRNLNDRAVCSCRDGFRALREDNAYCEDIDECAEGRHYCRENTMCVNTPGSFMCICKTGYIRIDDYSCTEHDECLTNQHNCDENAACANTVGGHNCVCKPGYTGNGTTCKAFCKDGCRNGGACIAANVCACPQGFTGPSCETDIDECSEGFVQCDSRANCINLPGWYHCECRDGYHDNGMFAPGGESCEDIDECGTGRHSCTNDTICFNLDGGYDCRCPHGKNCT
For B5, which Kd (mRobo3 FN1-3) is on record?
The Kd was ≥ 100000 nM.

B6: mouse NELL1 (ligand, UniProt Q2VWQ2 22-810, looked up)
chain: FGMDPDLQMDIITELDLVNTTLGVTQVAGLHNASKAFLFQDVQREIHSAPHVSEKLIQLFRNKSEFTFLATVQQKPSTSGVILSIRELEHSYFELESSGPREEIRYHYIHGGKPRTEALPYRMADGQWHKVALSVSASHLLLHVDCNRIYERVIDPPETNLPPGSNLWLGQRNQKHGFFKGIIQDGKIIFMPNGFITQCPNLNRTCPTCSDFLSLVQGIMDLQELLAKMTAKLNYAETRLGQLENCHCEKTCQVSGLLYRDQDSWVDGDNCRNCTCKSGAVECRRMSCPPLNCSPDSLPVHISGQCCKVCRPKCIYGGKVLAEGQRILTKTCRECRGGVLVKITEACPPLNCSEKDHILPENQCCRVCRGHNFCAEAPKCGENSECKNWNTKATCECKNGYISVQGNSAYCEDIDECAAKMHYCHANTVCVNLPGLYRCDCIPGYIRVDDFSCTEHDDCGSGQHNCDKNAICTNTVQGHSCTCQPGYVGNGTVCKAFCEEGCRYGGTCVAPNKCVCPSGFTGSHCEKDIDECAEGFVECHNHSRCVNLPGWYHCECRSGFHDDGTYSLSGESCIDIDECALRTHTCWNDSACINLAGGFDCLCPSGPSCSGDCPHEGGLKHNGQVWILREDRCSVCSCKDGKIFCRRTACDCQNPNVDLFCCPECDTRVTSQCLDQSGQKLYRSGDNWTHSCQQCRCLEGEADCWPLACPSLSCEYTAIFEGECCPRCVSDPCLADNIAYDIRKTCLDSSGISRLSGAVWTMAGSPCTTCQCKNGRVCCSVDLVCLENN
notes: NELL1, mouse; the methods say that mature domains were cloned into pAcGP67A; Trimer by MALS; also called mNELL1; source: High Five cells (baculovirus), secreted, purified (Ni-NTA, SEC)
For B6, which “stoichiometry N” value [3] is on record?
Its value is 3.

B7: mRobo1 ectodomain (domain or fragment, mouse, UniProt O89026 30-840, looked up)
chain: RIVEHPSDLIVSKGEPATLNCKAEGRPTPTIEWYKGGERVETDKDDPRSHRMLLPSGSLFFLRIVHGRKSRPDEGVYICVARNYLGEAVSHNASLEVAILRDDFRQNPSDVMVAVGEPAVMECQPPRGHPEPTISWKKDGSPLDDKDERITIRGGKLMITYTRKSDAGKYVCVGTNMVGERESEVAELTVLERPSFVKRPSNLAVTVDDSAEFKCEARGDPVPTVRWRKDDGELPKSRYEIRDDHTLKIRKVTAGDMGSYTCVAENMVGKAEASATLTVQEPPHFVVKPRDQVVALGRTVTFQCEATGNPQPAIFWRREGSQNLLFSYQPPQSSSRFSVSQTGDLTITNVQRSDVGYYICQTLNVAGSIITKAYLEVTDVIADRPPPVIRQGPVNQTVAVDGTLILSCVATGSPAPTILWRKDGVLVSTQDSRIKQLESGVLQIRYAKLGDTGRYTCTASTPSGEATWSAYIEVQEFGVPVQPPRPTDPNLIPSAPSKPEVTDVSKNTVTLSWQPNLNSGATPTSYIIEAFSHASGSSWQTAAENVKTETFAIKGLKPNAIYLFLVRAANAYGISDPSQISDPVKTQDVPPTSQGVDHKQVQRELGNVVLHLHNPTILSSSSVEVHWTVDQQSQYIQGYKILYRPSGASHGESEWLVFEVRTPTKNSVVIPDLRKGVNYEIKARPFFNEFQGADSEIKFAKTLEEAPSAPPRSVTVSKNDGNGTAILVTWQPPPEDTQNGMVQEYKVWCLGNETKYHINKTVDGSTFSVVIPSLVPGIRYSVEVAASTGAGPGVKSEPQFIQLDSHGNPVS
notes: mouse Robo1, extracellular domain, R30-S840; C-terminal Avi and His; also called mRobo1 ECD; Robo1ECD; source: High Five cells (baculovirus), purified (Ni-NTA, SEC)
For B7, which “stoichiometry N” value [6] is on record?
The value was 2.

B8: mNELL2 EGF1-6 D477A/Y478A (domain or fragment)
chain: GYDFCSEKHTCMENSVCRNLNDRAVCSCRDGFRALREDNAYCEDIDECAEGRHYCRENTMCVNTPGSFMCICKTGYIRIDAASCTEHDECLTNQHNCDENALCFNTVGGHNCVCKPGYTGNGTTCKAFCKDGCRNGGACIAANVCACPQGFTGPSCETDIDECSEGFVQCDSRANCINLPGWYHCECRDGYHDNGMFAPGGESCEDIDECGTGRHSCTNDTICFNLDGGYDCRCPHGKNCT
For B8, which Kd (mRobo3 FN1-3) is on record?
Its Kd is ≥ 100000 nM.
